Measured values published in paper PMC9482650, “Quantitative fragmentomics allow affinity mapping of interactomes” (Nature Communications, 2022).

B1: SLC1A1, P43005 (peptide)
chain: TISFTQTSQF
B2: PTPRG, P23470 (peptide)
chain: DPAESMESLV

What follows are binders tested against HTRA2, O43464 (assay: holdup assay). Conditions: plain residues with an end cap or a label only (N-terminal biotin on a linker: ado-ado).
Set-up: key: below the threshold = too weak to quantify, mostly under pKd 3.1 to 4

Chain of HTRA2, O43464 (O43464 355-458): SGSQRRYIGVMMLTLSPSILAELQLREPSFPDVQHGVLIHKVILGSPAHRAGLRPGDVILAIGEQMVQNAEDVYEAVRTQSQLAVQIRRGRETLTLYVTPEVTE

| Binder | pKd |
| --- | --- |
| B1 | below the threshold |
| B2 | below the threshold |

Each binder was assayed against DLG1_2, Q12959 (assay: holdup assay). Conditions: plain residues with an end cap or a label only (N-terminal biotin on a linker: ado-ado).
Set-up: key: below the threshold = too weak to quantify, mostly under pKd 3.1 to 4

Chain of DLG1_2, Q12959 (Q12959 314-412): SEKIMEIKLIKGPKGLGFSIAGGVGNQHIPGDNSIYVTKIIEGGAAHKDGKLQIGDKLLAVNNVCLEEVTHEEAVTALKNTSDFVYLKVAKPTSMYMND

| Binder | pKd |
| --- | --- |
| B1 | 3.83 |
| B2 | 5.03 |

These binders were tested against NHERF4_1, Q86UT5-2 (assay: holdup assay). Conditions: plain residues with an end cap or a label only (N-terminal biotin on a linker: ado-ado).
Set-up: key: below the threshold = too weak to quantify, mostly under pKd 3.1 to 4

Chain of NHERF4_1, Q86UT5-2 (Q86UT5 other isoform, or with tags, fused parts or gaps): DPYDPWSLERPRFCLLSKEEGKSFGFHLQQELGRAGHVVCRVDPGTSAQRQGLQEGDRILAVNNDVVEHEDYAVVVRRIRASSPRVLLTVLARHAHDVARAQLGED

| Binder | pKd |
| --- | --- |
| B1 | 3.99 |
| B2 | below the threshold |

What follows are binders tested against PICK1, Q9NRD5 (assay: holdup assay). Conditions: plain residues with an end cap or a label only (N-terminal biotin on a linker: ado-ado).
Set-up: key: below the threshold = too weak to quantify, mostly under pKd 3.1 to 4

Chain of PICK1, Q9NRD5 (Q9NRD5 17-115): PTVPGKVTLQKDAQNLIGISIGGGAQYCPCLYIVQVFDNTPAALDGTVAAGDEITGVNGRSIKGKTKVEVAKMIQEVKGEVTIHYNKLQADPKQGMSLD

| Binder | pKd |
| --- | --- |
| B1 | below the threshold |
| B2 | 4.13 |

Each binder was assayed against T1, MPDZ_12, O75970 (assay: holdup assay). Conditions: plain residues with an end cap or a label only (N-terminal biotin on a linker: ado-ado).
T1 sequence (O75970 1857-1958, limits assumed, looked up): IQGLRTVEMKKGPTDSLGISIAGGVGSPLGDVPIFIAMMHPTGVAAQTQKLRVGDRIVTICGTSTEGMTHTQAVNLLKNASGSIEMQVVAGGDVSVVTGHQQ
Set-up: key: below the threshold = too weak to quantify, mostly under pKd 3.1 to 4

| Binder | pKd |
| --- | --- |
| B1 | below the threshold |
| B2 | below the threshold |

What follows are binders tested against T2, LRRC7, Q96NW7 (assay: holdup assay). Conditions: plain residues with an end cap or a label only (N-terminal biotin on a linker: ado-ado).
T2 sequence (Q96NW7 1440-1537, limits assumed, looked up): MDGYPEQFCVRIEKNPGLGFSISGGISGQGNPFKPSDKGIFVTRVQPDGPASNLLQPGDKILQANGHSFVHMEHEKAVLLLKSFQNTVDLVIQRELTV
Set-up: key: below the threshold = too weak to quantify, mostly under pKd 3.1 to 4

| Binder | pKd |
| --- | --- |
| B1 | below the threshold |
| B2 | below the threshold |

What follows are binders tested against DLG4_2, P78352 (assay: holdup assay). Conditions: plain residues with an end cap or a label only (N-terminal biotin on a linker: ado-ado).
Set-up: key: below the threshold = too weak to quantify, mostly under pKd 3.1 to 4

Chain of DLG4_2, P78352 (P78352 155-259): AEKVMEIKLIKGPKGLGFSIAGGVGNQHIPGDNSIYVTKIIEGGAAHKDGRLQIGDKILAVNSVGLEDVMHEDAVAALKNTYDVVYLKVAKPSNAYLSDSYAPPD

| Binder | pKd |
| --- | --- |
| B1 | below the threshold |
| B2 | 5.01 |

Each binder was assayed against SCRIB_2, Q14160 (assay: holdup assay). Conditions: plain residues with an end cap or a label only (N-terminal biotin on a linker: ado-ado).
Set-up: key: below the threshold = too weak to quantify, mostly under pKd 3.1 to 4

Chain of SCRIB_2, Q14160 (Q14160 857-960): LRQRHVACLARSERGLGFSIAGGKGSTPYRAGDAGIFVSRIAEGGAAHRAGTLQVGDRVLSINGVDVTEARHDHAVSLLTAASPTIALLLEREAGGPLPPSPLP

| Binder | pKd |
| --- | --- |
| B1 | below the threshold |
| B2 | 3.68 |

The binders below were run against FRMPD2_3, Q68DX3 (assay: holdup assay). Conditions: plain residues with an end cap or a label only (N-terminal biotin on a linker: ado-ado).
Set-up: key: below the threshold = too weak to quantify, mostly under pKd 3.1 to 4

Chain of FRMPD2_3, Q68DX3 (Q68DX3 1073-1166): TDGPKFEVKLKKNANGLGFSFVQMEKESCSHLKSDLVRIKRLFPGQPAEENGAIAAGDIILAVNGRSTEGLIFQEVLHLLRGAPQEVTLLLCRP

| Binder | pKd |
| --- | --- |
| B1 | below the threshold |
| B2 | below the threshold |

These binders were tested against T3, TJP3_3, O95049 (assay: holdup assay). Conditions: plain residues with an end cap or a label only (N-terminal biotin on a linker: ado-ado).
T3 sequence (O95049 375-456, limits assumed, looked up): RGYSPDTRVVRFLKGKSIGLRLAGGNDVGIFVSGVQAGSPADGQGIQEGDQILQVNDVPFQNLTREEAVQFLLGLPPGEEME
Set-up: key: below the threshold = too weak to quantify, mostly under pKd 3.1 to 4

| Binder | pKd |
| --- | --- |
| B1 | below the threshold |
| B2 | below the threshold |

Each binder was assayed against T4, RHPN1, Q8TCX5 (assay: holdup assay). Conditions: plain residues with an end cap or a label only (N-terminal biotin on a linker: ado-ado).
T4 sequence (Q8TCX5 508-602, limits assumed, looked up): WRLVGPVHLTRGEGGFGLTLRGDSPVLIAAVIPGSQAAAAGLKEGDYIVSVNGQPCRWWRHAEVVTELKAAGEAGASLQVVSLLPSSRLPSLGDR
Set-up: key: below the threshold = too weak to quantify, mostly under pKd 3.1 to 4

| Binder | pKd |
| --- | --- |
| B1 | 3.73 |
| B2 | 4.17 |

What follows are binders tested against Inadl_8, Q8NI35 (assay: holdup assay). Conditions: plain residues with an end cap or a label only (N-terminal biotin on a linker: ado-ado).
Set-up: key: below the threshold = too weak to quantify, mostly under pKd 3.1 to 4

Chain of Inadl_8, Q8NI35 (Q8NI35 1425-1530): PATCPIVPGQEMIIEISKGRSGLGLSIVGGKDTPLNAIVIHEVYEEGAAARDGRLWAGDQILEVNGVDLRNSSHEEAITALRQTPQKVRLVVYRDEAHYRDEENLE

| Binder | pKd |
| --- | --- |
| B1 | below the threshold |
| B2 | below the threshold |

These binders were tested against T5, LIN7C, Q9NUP9 (assay: holdup assay). Conditions: plain residues with an end cap or a label only (N-terminal biotin on a linker: ado-ado).
T5 sequence (Q9NUP9 88-185, limits assumed, looked up): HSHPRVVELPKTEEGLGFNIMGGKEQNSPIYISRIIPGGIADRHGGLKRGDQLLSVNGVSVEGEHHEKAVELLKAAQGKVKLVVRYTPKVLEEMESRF
Set-up: key: below the threshold = too weak to quantify, mostly under pKd 3.1 to 4

| Binder | pKd |
| --- | --- |
| B1 | below the threshold |
| B2 | 3.94 |

These binders were tested against FRMPD4, Q14CM0 (assay: holdup assay). Conditions: plain residues with an end cap or a label only (N-terminal biotin on a linker: ado-ado).
Set-up: key: below the threshold = too weak to quantify, mostly under pKd 3.1 to 4

Chain of FRMPD4, Q14CM0 (Q14CM0 67-160): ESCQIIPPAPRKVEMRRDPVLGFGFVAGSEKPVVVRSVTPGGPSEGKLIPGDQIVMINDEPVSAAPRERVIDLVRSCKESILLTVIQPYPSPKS

| Binder | pKd |
| --- | --- |
| B1 | below the threshold |
| B2 | 3.58 |

What follows are binders tested against Inadl_5, Q8NI35 (assay: holdup assay). Conditions: plain residues with an end cap or a label only (N-terminal biotin on a linker: ado-ado).
Set-up: key: below the threshold = too weak to quantify, mostly under pKd 3.1 to 4

Chain of Inadl_5, Q8NI35 (Q8NI35 673-780): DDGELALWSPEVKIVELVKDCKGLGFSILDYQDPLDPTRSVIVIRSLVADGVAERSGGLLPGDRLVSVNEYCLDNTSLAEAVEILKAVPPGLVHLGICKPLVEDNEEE

| Binder | pKd |
| --- | --- |
| B1 | below the threshold |
| B2 | below the threshold |

The binders below were run against FRMPD2_1, Q68DX3 (assay: holdup assay). Conditions: plain residues with an end cap or a label only (N-terminal biotin on a linker: ado-ado).
Set-up: key: below the threshold = too weak to quantify, mostly under pKd 3.1 to 4

Chain of FRMPD2_1, Q68DX3 (Q68DX3 770-861): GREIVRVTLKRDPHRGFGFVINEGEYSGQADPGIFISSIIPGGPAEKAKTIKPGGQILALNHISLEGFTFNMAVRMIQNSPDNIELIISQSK

| Binder | pKd |
| --- | --- |
| B1 | below the threshold |
| B2 | below the threshold |

The binders below were run against IL16_3, Q14005 (assay: holdup assay). Conditions: plain residues with an end cap or a label only (N-terminal biotin on a linker: ado-ado).
Set-up: key: below the threshold = too weak to quantify, mostly under pKd 3.1 to 4

Chain of IL16_3, Q14005 (Q14005 1107-1207): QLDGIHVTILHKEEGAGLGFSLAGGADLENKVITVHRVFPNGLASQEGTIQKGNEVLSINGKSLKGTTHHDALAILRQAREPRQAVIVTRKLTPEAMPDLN

| Binder | pKd |
| --- | --- |
| B1 | below the threshold |
| B2 | below the threshold |

Each binder was assayed against T6, SYNJ2BP, P57105 (assay: holdup assay). Conditions: plain residues with an end cap or a label only (N-terminal biotin on a linker: ado-ado).
T6 sequence (P57105 8-110, limits assumed, looked up): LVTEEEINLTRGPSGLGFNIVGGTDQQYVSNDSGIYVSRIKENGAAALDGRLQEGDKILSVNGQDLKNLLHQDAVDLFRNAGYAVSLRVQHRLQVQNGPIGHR
Set-up: key: below the threshold = too weak to quantify, mostly under pKd 3.1 to 4

| Binder | pKd |
| --- | --- |
| B1 | below the threshold |
| B2 | 4.74 |

What follows are binders tested against MAGI3_2, Q5TCQ9 (assay: holdup assay). Conditions: plain residues with an end cap or a label only (N-terminal biotin on a linker: ado-ado).
Set-up: key: below the threshold = too weak to quantify, mostly under pKd 3.1 to 4

Chain of MAGI3_2, Q5TCQ9 (Q5TCQ9 398-503): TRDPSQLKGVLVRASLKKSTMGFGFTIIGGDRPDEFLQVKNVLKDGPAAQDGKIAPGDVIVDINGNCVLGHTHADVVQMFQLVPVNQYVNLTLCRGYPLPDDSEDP

| Binder | pKd |
| --- | --- |
| B1 | below the threshold |
| B2 | 4.84 |

The binders below were run against T7, DFNB31_1, Q9P202 (assay: holdup assay). Conditions: plain residues with an end cap or a label only (N-terminal biotin on a linker: ado-ado).
T7 sequence (Q9P202 135-233, limits assumed, looked up): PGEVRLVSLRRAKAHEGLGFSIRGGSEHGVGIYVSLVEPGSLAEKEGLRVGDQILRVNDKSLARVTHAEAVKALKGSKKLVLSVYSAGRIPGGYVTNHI
Set-up: key: below the threshold = too weak to quantify, mostly under pKd 3.1 to 4

| Binder | pKd |
| --- | --- |
| B1 | below the threshold |
| B2 | below the threshold |

Each binder was assayed against PDZRN4_1, Q6ZMN7 (assay: holdup assay). Conditions: plain residues with an end cap or a label only (N-terminal biotin on a linker: ado-ado).
Set-up: key: below the threshold = too weak to quantify, mostly under pKd 3.1 to 4

Chain of PDZRN4_1, Q6ZMN7 (Q6ZMN7 213-318): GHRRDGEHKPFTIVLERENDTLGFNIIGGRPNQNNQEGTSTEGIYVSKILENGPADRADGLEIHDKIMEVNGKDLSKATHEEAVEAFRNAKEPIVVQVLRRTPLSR

| Binder | pKd |
| --- | --- |
| B1 | below the threshold |
| B2 | 3.72 |

The binders below were run against LNX1_1, Q8TBB1 (assay: holdup assay). Conditions: plain residues with an end cap or a label only (N-terminal biotin on a linker: ado-ado).
Set-up: key: below the threshold = too weak to quantify, mostly under pKd 3.1 to 4

Chain of LNX1_1, Q8TBB1 (Q8TBB1 261-371): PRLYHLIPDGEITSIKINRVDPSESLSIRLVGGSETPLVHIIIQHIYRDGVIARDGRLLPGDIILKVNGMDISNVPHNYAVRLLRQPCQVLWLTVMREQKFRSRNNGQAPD

| Binder | pKd |
| --- | --- |
| B1 | below the threshold |
| B2 | 4.06 |

These binders were tested against T8, SHANK1, Q9Y566 (assay: holdup assay). Conditions: plain residues with an end cap or a label only (N-terminal biotin on a linker: ado-ado).
T8 sequence (Q9Y566 658-767, limits assumed, looked up): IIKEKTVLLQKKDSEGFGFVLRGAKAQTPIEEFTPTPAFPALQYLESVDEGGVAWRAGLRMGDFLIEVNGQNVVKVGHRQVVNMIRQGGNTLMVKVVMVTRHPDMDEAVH
Set-up: key: below the threshold = too weak to quantify, mostly under pKd 3.1 to 4

| Binder | pKd |
| --- | --- |
| B1 | 4.61 |
| B2 | below the threshold |

What follows are binders tested against MAGI1_1, Q96QZ7 (assay: holdup assay). Conditions: plain residues with an end cap or a label only (N-terminal biotin on a linker: ado-ado).
Set-up: key: below the threshold = too weak to quantify, mostly under pKd 3.1 to 4

Chain of MAGI1_1, Q96QZ7 (Q96QZ7 1-106): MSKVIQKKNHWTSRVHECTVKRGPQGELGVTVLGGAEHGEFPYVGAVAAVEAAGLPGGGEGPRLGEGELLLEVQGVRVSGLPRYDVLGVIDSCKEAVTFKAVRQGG

| Binder | pKd |
| --- | --- |
| B1 | below the threshold |
| B2 | below the threshold |

The binders below were run against TJP2_1, Q9UDY2 (assay: holdup assay). Conditions: plain residues with an end cap or a label only (N-terminal biotin on a linker: ado-ado).
Set-up: key: below the threshold = too weak to quantify, mostly under pKd 3.1 to 4

Chain of TJP2_1, Q9UDY2 (Q9UDY2 24-128): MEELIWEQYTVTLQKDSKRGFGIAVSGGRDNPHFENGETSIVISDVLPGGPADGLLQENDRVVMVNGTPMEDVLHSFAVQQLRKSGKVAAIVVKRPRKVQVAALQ

| Binder | pKd |
| --- | --- |
| B1 | below the threshold |
| B2 | below the threshold |

What follows are binders tested against Inadl_10, Q8NI35 (assay: holdup assay). Conditions: plain residues with an end cap or a label only (N-terminal biotin on a linker: ado-ado).
Set-up: key: below the threshold = too weak to quantify, mostly under pKd 3.1 to 4

Chain of Inadl_10, Q8NI35 (Q8NI35 1673-1763): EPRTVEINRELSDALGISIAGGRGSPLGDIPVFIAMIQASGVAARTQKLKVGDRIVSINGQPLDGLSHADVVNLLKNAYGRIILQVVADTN

| Binder | pKd |
| --- | --- |
| B1 | below the threshold |
| B2 | below the threshold |

These binders were tested against T9, SNTG2, Q9NY99 (assay: holdup assay). Conditions: plain residues with an end cap or a label only (N-terminal biotin on a linker: ado-ado).
T9 sequence (Q9NY99 68-166, limits assumed, looked up): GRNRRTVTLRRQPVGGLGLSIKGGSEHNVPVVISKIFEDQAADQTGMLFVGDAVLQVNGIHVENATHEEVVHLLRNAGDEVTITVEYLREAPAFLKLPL
Set-up: key: below the threshold = too weak to quantify, mostly under pKd 3.1 to 4

| Binder | pKd |
| --- | --- |
| B1 | below the threshold |
| B2 | 4.24 |

The binders below were run against FRMPD3, Q5JV73 (assay: holdup assay). Conditions: plain residues with an end cap or a label only (N-terminal biotin on a linker: ado-ado).
Set-up: key: below the threshold = too weak to quantify, mostly under pKd 3.1 to 4

Chain of FRMPD3, Q5JV73 (Q5JV73 12-100): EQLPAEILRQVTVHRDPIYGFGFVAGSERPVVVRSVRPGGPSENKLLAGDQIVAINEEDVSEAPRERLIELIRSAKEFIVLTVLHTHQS

| Binder | pKd |
| --- | --- |
| B1 | below the threshold |
| B2 | below the threshold |
